According to patent US20130143238A1 (BAXTER HEALTHCARE S A, published 2013):

T1: human cluster designation 34 (CD34) antigen on the surface of TF-1 cells (human, UniProt P28906 32-385)
T1 construct: whole, on cells; native on TF-1 cells; also called CD34 membrane-protein; CD34-receptor
T1 sequence (looked up): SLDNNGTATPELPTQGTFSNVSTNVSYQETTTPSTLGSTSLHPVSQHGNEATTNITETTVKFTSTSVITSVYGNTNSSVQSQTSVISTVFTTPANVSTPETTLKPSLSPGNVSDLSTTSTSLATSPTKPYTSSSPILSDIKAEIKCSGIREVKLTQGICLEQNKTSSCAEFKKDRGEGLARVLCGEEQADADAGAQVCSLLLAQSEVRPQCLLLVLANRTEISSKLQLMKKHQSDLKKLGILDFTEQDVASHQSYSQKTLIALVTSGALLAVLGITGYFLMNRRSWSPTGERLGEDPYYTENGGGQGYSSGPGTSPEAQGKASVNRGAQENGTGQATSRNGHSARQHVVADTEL


What was measured:
[1] = molecular target: T1, human cluster designation 34 (CD34) …; experiment: cell capture assay, conditioned medium of HEK293T cells, TF-1 cells, luminescence
Method: (§1) 96-well microplates (Maxisorp, Nalge Nunc) were coated with polyclonal anti-mouse IgG antibody developed in goats (Jackson Immuno Research, Suffolk, UK) or in sheep (Baxter Oncology, Halle, Germany). After washing with PBS, either conditioned medium containing the anti-CD34 antibody was added and incubated overnight at 4° C. or purified antibody was diluted in DMEM medium (Invitrogen/Gibco, Lofer, Austria) supplemented with 10% FCS (PAA Laboratories, Pasching, Austria) and 1% penicillin/streptomycin (Invitrogen/Gibco) prior to incubation. Subsequently, plates were washed with PBS and TF-1 cells (ATCC CRL-2003) were added at a cell density of 1×10⁵ cells/mL. TF-1 cells were cultivated in RPMI medium (Invitrogen/Gibco). The bound anti-CD34 antibody captures the TF-1 cells by binding to the CD34 present on the surface of the cells. After washing steps to remove the unbound cells, the Cell Titer-Glo reagent from the CellTiter-Glo Luminescent Cell Viability Assay Kit (Promega, Mannheim, Germany) was added. This reagent gives a luminescence signal proportional to the number of viable cells based on an ATP-dependent luciferase reaction (FIG. 3).
The expression of mouse IgG was first verified by the Easy Titer Mouse IgG Assay (Pierce) according to the manufacturer's instructions. To test the functionality of the antibodies the supernatants were tested in the cell capture assay. […]

[2] = molecular target: T1, human cluster designation 34 (CD34) …; experiment: cell capture assay, dilution series of purified antibody, TF-1 cells
Method: as §1
Furthermore, in a large scale expression experiment 23 triple flasks (Nunclon Surface, Nalge Nunc) and one cell factory (Nalge Nunc) were co-transfected and incubated for three weeks. […]

binding result [1]	binding result [2]	Binder
binds	–	recombinant anti-CD34 antibody transiently expressed in HEK293T cells (co-transfection of pCMV-9C5lc and pCMV-9C5hc) (antibody, V domains shown, Tested as conditioned medium and as purified antibody, captured on plates coated with anti-mouse IgG; also called anti-CD34 9C5 antibody; transiently expressed recombinant anti-CD34 antibody) VH: EVQLQQSGPELVKPGASVKISCKASGYSFIGYFMNWVMQSHGRSLEWIGRINPYNGYTFYNQKFKGKATLTVDKSSSTAHMELRSLASEDSAVYYCARHFRYDGVFYYAMDYWGQGTSVTVSS VL: QLVLTQSSSASFSLGASAKLTCTLSSQHSTFTIEWYQQQPLKPPKYVMDLKKDGSHSTGDGVPDRFSGSSSGADRYLSISNIQPEDEATYICGVGDTIKEQFVYVFGGGTKVTVLG
–	binds	hybridoma-derived anti-CD34 antibody secreted by the mouse hybridoma cell line 9C5/9069 (antibody, V domains shown, also called hybridoma supernatant) VH: EVQLQQSGPELVKPGASVKISCKASGYSFIGYFMNWVMQSHGRSLEWIGRINPYNGYTFYNQKFKGKATLTVDKSSSTAHMELRSLASEDSAVYYCARHFRYDGVFYYAMDYWGQGTSVTVSS VL: QLVLTQSSSASFSLGASAKLTCTLSSQHSTFTIEWYQQQPLKPPKYVMDLKKDGSHSTGDGVPDRFSGSSSGADRYLSISNIQPEDEATYICGVGDTIKEQFVYVFGGGTKVTVLG
